Laboratory results taken from IntAct's records for PubMed 17360477.

B1: Receptor-type tyrosine-protein phosphatase T (Homo sapiens), O14522-1 (parent)
chain: MASLAALALSLLLRLQLPPLPGARAQSAAGGCSFDEHYSNCGYSVALGTNGFTWEQINTWEKPMLDQAVPTGSFMMVNSSGRASGQKAHLLLPTLKENDTHCIDFHYYFSSRDRSSPGALNVYVKVNGGPQGNPVWNVSGVVTEGWVKAELAISTFWPHFYQVIFESVSLKGHPGYIAVDEVRVLAHPCRKAPHFLRLQNVEVNVGQNATFQCIAGGKWSQHDKLWLQQWNGRDTALMVTRVVNHRRFSATVSVADTAQRSVSKYRCVIRSDGGSGVSNYAELIVKEPPTPIAPPELLAVGATYLWIKPNANSIIGDGPIILKEVEYRTTTGTWAETHIVDSPNYKLWHLDPDVEYEIRVLLTRPGEGGTGPPGPPLTTRTKCADPVHGPQNVEIVDIRARQLTLQWEPFGYAVTRCHSYNLTVQYQYVFNQQQYEAEEVIQTSSHYTLRGLRPFMTIRLRLLLSNPEGRMESEELVVQTEEDVPGAVPLESIQGGPFEEKIYIQWKPPNETNGVITLYEINYKAVGSLDPSADLSSQRGKVFKLRNETHHLFVGLYPGTTYSFTIKASTAKGFGPPVTTRIATKISAPSMPEYDTDTPLNETDTTITVMLKPAQSRGAPVSVYQLVVKEERLQKSRRAADIIECFSVPVSYRNASSLDSLHYFAAELKPANLPVTQPFTVGDNKTYNGYWNPPLSPLKSYSIYFQALSKANGETKINCVRLATKAPMGSAQVTPGTPLCLLTTGASTQNSNTVEPEKQVDNTVKMAGVIAGLLMFIIILLGVMLTIKRRRNAYSYSYYLSQRKLAKKQKETQSGAQREMGPVASADKPTTKLSASRNDEGFSSSSQDVNGFTDGSRGELSQPTLTIQTHPYRTCDPVEMSYPRDQFQPAIRVADLLQHITQMKRGQGYGFKEEYEALPEGQTASWDTAKEDENRNKNRYGNIISYDHSRVRLLVLDGDPHSDYINANYIDGYHRPRHYIATQGPMQETVKDFWRMIWQENSASIVMVTNLVEVGRVKCVRYWPDDTEVYGDIKVTLIETEPLAEYVIRTFTVQKKGYHEIRELRLFHFTSWPDHGVPCYATGLLGFVRQVKFLNPPEAGPIVVHCSAGAGRTGCFIAIDTMLDMAENEGVVDIFNCVRELRAQRVNLVQTEEQYVFVHDAILEACLCGNTAIPVCEFRSLYYNISRLDPQTNSSQIKDEFQTLNIVTPRVRPEDCSIGLLPRNHDKNRSMDVLPLDRCLPFLISVDGESSNYINAALMDSHKQPAAFVVTQHPLPNTVADFWRLVFDYNCSSVVMLNEMDTAQFCMQYWPEKTSGCYGPIQVEFVSADIDEDIIHRIFRICNMARPQDGYRIVQHLQYIGWPAYRDTPPSKRSLLKVVRRLEKWQEQYDGREGRTVVHCLNGGGRSGTFCAICSVCEMIQQQNIIDVFHIVKTLRNNKSNMVETLEQYKFVYEVALEYLSSF

Variants of: B1
Settings: with stat3_human STAT3, P40763
Sequence of stat3_human STAT3, P40763 (P40763 whole entry): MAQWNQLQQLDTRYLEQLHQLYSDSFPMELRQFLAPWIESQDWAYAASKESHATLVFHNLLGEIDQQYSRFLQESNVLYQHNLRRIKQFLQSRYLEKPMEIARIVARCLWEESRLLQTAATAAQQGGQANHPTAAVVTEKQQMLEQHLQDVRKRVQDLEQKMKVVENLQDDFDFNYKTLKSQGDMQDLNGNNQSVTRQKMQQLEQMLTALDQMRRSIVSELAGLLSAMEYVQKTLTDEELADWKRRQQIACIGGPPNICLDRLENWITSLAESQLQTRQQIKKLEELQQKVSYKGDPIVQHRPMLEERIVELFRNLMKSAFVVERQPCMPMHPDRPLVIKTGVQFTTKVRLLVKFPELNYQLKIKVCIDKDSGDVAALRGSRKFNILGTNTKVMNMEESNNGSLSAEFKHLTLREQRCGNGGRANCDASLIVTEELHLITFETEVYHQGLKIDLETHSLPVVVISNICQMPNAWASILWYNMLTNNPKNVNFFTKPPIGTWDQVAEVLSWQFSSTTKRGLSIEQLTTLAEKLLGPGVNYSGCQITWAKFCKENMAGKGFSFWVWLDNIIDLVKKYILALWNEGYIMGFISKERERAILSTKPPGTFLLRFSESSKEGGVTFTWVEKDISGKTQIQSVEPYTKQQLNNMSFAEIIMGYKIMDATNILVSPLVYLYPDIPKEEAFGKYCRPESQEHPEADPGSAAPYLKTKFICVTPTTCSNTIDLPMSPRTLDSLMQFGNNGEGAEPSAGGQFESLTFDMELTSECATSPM

effect of a mutation on the interaction	Variant
increasing interaction strength	D1074A;C1106S
increasing interaction strength	D1074A
